# Data reported in patent US20180244784A1 (published 2018).
# B1: AB4 with linker 2 (SEQ ID NO:27) (VHH)
# VHH: QVKLEESGGGLVQAGGSLRLSCAASGGTASSYAMGWFRQAPGKEREFVAAISRSGGNTDYVDSAKGRFTISRDDAKNTVSLQMNSLRLEDTAVYYCAARYAGTWPNDAGTVYWLPPNYNYWGQGTQVTVSS
# notes: also called VR2-38; V38 with c-Myc/His6 tail
# B2: human VEGFR-2/Fc (R&D Systems) (Fc fusion)
# chain: ASVGLPSVSLDLPRLSIQKDILTIKANTTLQITCRGQRDLDWLWPNNQSGSEQRVEVTECSDGLFCKTLTIPKVIGNDTGAYKCFYRETDLASVIYVYVQDYRSPFIASVSDQHGVVYITENKNKTVVIPCLGSISNLNVSLCARYPEKRFVPDGNRISWDSKKGFTIPSYMISYAGMVFCEAKINDESYQSIMYIVVVVGYRIYDVVLSPSHGIELSVGEKLVLNCTARTELNVGIDFNWEYPSSKHQHKKLVNRDLKTQSGSEMKKFLSTLTIDGVTRSDQGLYTCAASSGLMTKKNSTFVRVHEKPFVAFGSGMESLVEATVGERVRIPAKYLGYPPPEIKWYKNGIPLESNHTIKAGHVLTIMEVSERDTGNYTVILTNPISKEKQSHVVSLVVYVPPQIGEKSLISPVDSYQYGTTQTLTCTVYAIPPPHHIHWYWQLEEECANEPSQAVSVTNPYPCEEWRSVEDFQGGNKIEVNKNQFALIEGKNKTVSTLVIQAANVSALYKCEAVNKVGRGERVISFHVTRGPEITLQPDMQPTEQESVSLWCTADRSTFENLTWYKLGPQPLPIHVGELPTPVCKNLDTLWKLNATMFSNSTNDILIMELKNASLQDQGDYVCLAQDRKTKKRHCVVRQLTVLERVAPTITGNLENQTTSIGESIEVSCTASGNPPPQIMWFKDNETLVEDSGIVLKDGNRNLTIRRVRKEDEGLYTCQACSVLGCAKVEAFFIIEGAQEKTNLE
# notes: also called recombinant VEGFR2/Fc; VEGFR/Fc; not shown: Fc part of the bought fusion; It was captured by goat anti-human IgG-Fc in the ELISA
# B3: VEGFR3/Fc (R&D Systems) (Fc fusion)
# chain: YSMTPPTLNITEESHVIDTGDSLSISCRGQHPLEWAWPGAQEAPATGDKDSEDTGVVRDCEGTDARPYCKVLLLHEVHANDTGSYVCYYKYIKARIEGTTAASSYVFVRDFEQPFINKPDTLLVNRKDAMWVPCLVSIPGLNVTLRSQSSVLWPDGQEVVWDDRRGMLVSTPLLHDALYLQCETTWGDQDFLSNPFLVHITGNELYDIQLLPRKSLELLVGEKLVLNCTVWAEFNSGVTFDWDYPGKQAERGKWVPERRSQQTHTELSSILTIHNVSQHDLGSYVCKANNGIQRFRESTEVIVHENPFISVEWLKGPILEATAGDELVKLPVKLAAYPPPEFQWYKDGKALSGRHSPHALVLKEVTEASTGTYTLALWNSAAGLRRNISLELVVNVPPQIHEKEASSPSIYSRHSRQALTCTAYGVPLPLSIQWHWRPWTPCKMFAQRSLRRRQQQDLMPQCRDWRAVTTQDAVNPIESLDTWTEFVEGKNKTVSKLVIQNANVSAMYKCVVSNKVGQDERLIYFYVTTIPDGFTIESKPSEELLEGQPVLLSCQADSYKYEHLRWYRLNLSTLHDAHGNPLLLDCKNVHLFATPLAASLEEVAPGARHATLSLSIPRVAPEHEGHYVCEVQDRRSHDKHCHKKYLSVQALEAPRLTQNLTDLLVNVSDSLEMQCLVAGAHAPSIVWYKDERLLEEKSGVDLADSNQKLSIQRVREEDAGRYLCSVCNAKGCVNSSASVAVEGSEDKGSMEI
# notes: not shown: Fc part, captured by goat anti-human IgG-Fc; not described further
# B4: biotin-V21H4 (biotinylated AB1 antibody, SEQ ID NO:6) (VHH)
# VHH: QVQLVESGGGLVQAGGSLRLSCAASGRAFSSYAMGWFRQAPGKERELVAAISWSDDSTYYANSVKGRFTISRDNAKSAVYLQMNSLKPEDTAVYYCAAHKSLQRPDEYTYWGQGTQVTVSS
# notes: also called V21H4 antibody alone; AB1C
# B5: AB1 with linker 2 (SEQ ID NO:7) (VHH)
# VHH: B4 VHH
# notes: also called VR2-21; V21 with c-Myc/His6 tail
# B6: AB2 with linker 2 (SEQ ID NO:13) (other)
# VH: MQVQLVESGGGLIKPGGSLRLSCAASGFRFSAESMTWVRQAPGKGLEWVSAISSSGGSTYYADSVKGRFTISRDNSKNTVYLQMNSLRAEDTAVYYCVRSPKGCTHASCSWNSGSWGQGTLVTVSSGSEQKLISEEDLNHHHHH
# notes: also called VR2-801-18; V18 with c-Myc/His5 tail
# B7: AB3 with linker 2 (SEQ ID NO:21) (other)
# VH: MQVQLVESGGGLIKPGGSLRLSCAASGDMLSYDVMSWVRQAPGKGLEWVSAISSSGGSTYYADSVKGRFTISRDNSKNTVYLQMNSLRAEDTAVYYCVAAPWRCTHDNCSKTRASWGQGTMVTVSSGSEQKLISEEDLNHHHHH
# notes: also called VR2-801-45; V45 with c-Myc/His5 tail
# Columns and labels:
# [1] = target: T1, mouse VEGFR-2/Fc (R&D Systems) (mouse, UniProt P35918 20-762); assay: SPR (Biacore 3000), immobilized mouse VEGFR-2/Fc
# T1 construct: not shown: Fc part of the bought fusion, not described
# T1 sequence (P35918 20-762 limits assumed): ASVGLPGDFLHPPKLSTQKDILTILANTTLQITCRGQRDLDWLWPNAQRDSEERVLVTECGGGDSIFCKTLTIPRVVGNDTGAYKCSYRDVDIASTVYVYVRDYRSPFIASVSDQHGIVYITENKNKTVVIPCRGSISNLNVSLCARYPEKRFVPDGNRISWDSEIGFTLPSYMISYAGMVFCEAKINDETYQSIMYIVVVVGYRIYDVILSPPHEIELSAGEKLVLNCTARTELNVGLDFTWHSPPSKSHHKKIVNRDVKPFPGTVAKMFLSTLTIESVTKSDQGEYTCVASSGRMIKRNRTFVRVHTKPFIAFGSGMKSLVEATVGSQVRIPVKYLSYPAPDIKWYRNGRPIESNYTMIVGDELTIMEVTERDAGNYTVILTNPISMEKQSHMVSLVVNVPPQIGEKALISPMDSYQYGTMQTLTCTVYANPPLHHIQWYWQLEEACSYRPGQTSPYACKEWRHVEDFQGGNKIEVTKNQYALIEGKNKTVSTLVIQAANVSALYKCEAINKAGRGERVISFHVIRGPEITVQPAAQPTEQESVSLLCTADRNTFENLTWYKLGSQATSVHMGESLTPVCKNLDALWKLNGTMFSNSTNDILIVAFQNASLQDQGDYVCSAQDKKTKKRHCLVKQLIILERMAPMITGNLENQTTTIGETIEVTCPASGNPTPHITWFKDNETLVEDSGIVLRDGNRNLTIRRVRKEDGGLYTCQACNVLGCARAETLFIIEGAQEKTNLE
# [2] = target: T2, AB1m (SEQ ID NO:9)-DOS47 antibody-urease conjugate (jack bean (Canavalia ensiformis), UniProt P07374 1-840); assay: ELISA, urease conjugates on VEGFR2/Fc
# T2 construct: also called AB1-DOS47
# T2 sequence (VHH, as listed by the source limits assumed, chain 1 of 2): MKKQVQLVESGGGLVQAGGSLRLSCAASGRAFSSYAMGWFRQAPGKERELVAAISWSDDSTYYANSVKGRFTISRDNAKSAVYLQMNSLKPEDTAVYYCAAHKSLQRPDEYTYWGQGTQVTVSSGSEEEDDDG
# T2 sequence (P07374 whole entry, chain 2 of 2): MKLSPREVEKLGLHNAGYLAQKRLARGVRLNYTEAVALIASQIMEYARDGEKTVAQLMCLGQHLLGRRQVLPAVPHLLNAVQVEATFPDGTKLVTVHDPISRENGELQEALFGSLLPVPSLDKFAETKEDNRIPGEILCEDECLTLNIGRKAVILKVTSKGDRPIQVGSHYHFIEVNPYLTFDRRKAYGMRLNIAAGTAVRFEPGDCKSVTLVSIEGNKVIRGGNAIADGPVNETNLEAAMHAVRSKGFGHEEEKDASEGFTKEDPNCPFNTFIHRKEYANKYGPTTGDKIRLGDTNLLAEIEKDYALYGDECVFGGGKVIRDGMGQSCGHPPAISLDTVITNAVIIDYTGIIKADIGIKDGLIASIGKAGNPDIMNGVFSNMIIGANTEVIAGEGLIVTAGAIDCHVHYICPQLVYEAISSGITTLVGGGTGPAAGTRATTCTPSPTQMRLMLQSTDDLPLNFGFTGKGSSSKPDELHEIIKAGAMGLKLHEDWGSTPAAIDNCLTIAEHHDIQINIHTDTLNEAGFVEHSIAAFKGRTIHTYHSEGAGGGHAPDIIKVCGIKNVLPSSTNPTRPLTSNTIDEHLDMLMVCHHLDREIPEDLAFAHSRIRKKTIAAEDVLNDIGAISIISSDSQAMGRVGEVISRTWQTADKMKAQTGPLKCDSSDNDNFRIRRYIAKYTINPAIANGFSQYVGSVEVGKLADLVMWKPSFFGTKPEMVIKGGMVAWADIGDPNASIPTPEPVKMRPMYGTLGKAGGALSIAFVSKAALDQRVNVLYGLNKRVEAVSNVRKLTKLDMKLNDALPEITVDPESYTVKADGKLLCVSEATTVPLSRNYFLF
# [3] = target: T3, AB2 (SEQ ID NO:13)-DOS47 antibody-urease conjugate (jack bean (Canavalia ensiformis), UniProt P07374 1-840); assay: ELISA, urease conjugates on VEGFR2/Fc
# T3 construct: also called AB2-DOS47
# T3 sequence (P07374 whole entry): as the sequence (P07374 whole entry, chain 2 of 2) above
# [4] = target: T4, AB3m (SEQ ID NO:23)-DOS47 antibody-urease conjugate (jack bean (Canavalia ensiformis), UniProt P07374 1-840); assay: ELISA, urease conjugates on VEGFR2/Fc
# T4 construct: also called AB3-DOS47
# T4 sequence (VH, as listed by the source limits assumed, chain 1 of 2): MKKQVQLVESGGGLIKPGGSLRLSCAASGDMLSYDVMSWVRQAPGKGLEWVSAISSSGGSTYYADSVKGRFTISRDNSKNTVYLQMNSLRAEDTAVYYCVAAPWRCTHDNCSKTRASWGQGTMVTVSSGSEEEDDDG
# T4 sequence (P07374 whole entry, chain 2 of 2): as the sequence (P07374 whole entry, chain 2 of 2) above
# [5] = target: T5, AB4 (SEQ ID NO:27)-DOS47 antibody-urease conjugate (jack bean (Canavalia ensiformis), UniProt P07374 1-840); assay: ELISA, urease conjugates on VEGFR2/Fc
# T5 construct: also called AB4-DOS47
# T5 sequence (VHH, as listed by the source limits assumed, chain 1 of 2): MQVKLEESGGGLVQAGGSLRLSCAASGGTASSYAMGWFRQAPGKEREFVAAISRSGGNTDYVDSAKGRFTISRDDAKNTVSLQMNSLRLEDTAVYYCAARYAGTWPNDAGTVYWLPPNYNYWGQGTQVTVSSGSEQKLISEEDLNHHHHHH
# T5 sequence (P07374 whole entry, chain 2 of 2): as the sequence (P07374 whole entry, chain 2 of 2) above
# [6] = target: T6, V21H4-DOS47 (V21H4, SEQ ID NO:6, conjugated to urease through BM(PEG)2) (jack bean (Canavalia ensiformis), UniProt P07374 1-840); assay: ELISA, VEGFR2/Fc captured on anti-human IgG-Fc, conjugate detected with anti-urease
# T6 construct: also called V21-DOS47
# T6 sequence (VHH, as listed by the source limits assumed, chain 1 of 2): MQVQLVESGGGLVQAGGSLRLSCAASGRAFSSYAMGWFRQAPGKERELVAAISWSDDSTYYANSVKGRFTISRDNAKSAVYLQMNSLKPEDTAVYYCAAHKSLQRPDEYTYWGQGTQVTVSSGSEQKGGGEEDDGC
# T6 sequence (P07374 whole entry, chain 2 of 2): as the sequence (P07374 whole entry, chain 2 of 2) above
# [7] = target: V21H1-DOS47 (V21H1, SEQ ID NO:3, conjugated to urease through SM(PEG)2) (jack bean (Canavalia ensiformis), UniProt P07374 1-840); assay: as above
# Sequence of V21H1-DOS47 (V21H1, SEQ ID NO:3, conjugated to urease through SM(PEG)2) (VHH, as listed by the source limits assumed, chain 1 of 2): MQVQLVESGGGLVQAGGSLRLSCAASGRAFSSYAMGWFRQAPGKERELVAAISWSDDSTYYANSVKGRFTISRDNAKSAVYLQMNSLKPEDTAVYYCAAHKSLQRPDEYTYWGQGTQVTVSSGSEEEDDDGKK
# Sequence of V21H1-DOS47 (V21H1, SEQ ID NO:3, conjugated to urease through SM(PEG)2) (P07374 whole entry, chain 2 of 2): as the sequence (P07374 whole entry, chain 2 of 2) above
# [8] = target: T7, V21H4-DOS47 with 5.1 antibodies per urease (Canavalia ensiformis, UniProt P07374); assay: as above
# T7 construct: subunit of the homohexameric enzyme
# T7 sequence (P07374 whole entry, chain 2 of 2): as above
# [9] = target: T8, V21H4-DOS47 with 6.6 antibodies per urease (Canavalia ensiformis, UniProt P07374); assay: as above
# T8 construct: subunit of the homohexameric enzyme
# T8 sequence (P07374 whole entry, chain 2 of 2): as above
# [10] = target: T9, V21H4-DOS47 with 7.2 antibodies per urease (Canavalia ensiformis, UniProt P07374); assay: as above
# T9 construct: subunit of the homohexameric enzyme
# T9 sequence (P07374 whole entry, chain 2 of 2): as above
# [11] = target: T10, V21H4-DOS47 with 8.7 antibodies per urease (Canavalia ensiformis, UniProt P07374); assay: as above
# T10 construct: subunit of the homohexameric enzyme
# T10 sequence (P07374 whole entry, chain 2 of 2): as above
# [12] = target: V21H4-DOS47 with 1.4 antibodies per urease (jack bean (Canavalia ensiformis), UniProt P07374 1-840); assay: as above
# Sequence of V21H4-DOS47 with 1.4 antibodies per urease (P07374 whole entry, chain 2 of 2): as above
# [13] = target: V21H4-DOS47 with 2.3 antibodies per urease (jack bean (Canavalia ensiformis), UniProt P07374 1-840); assay: as above
# Sequence of V21H4-DOS47 with 2.3 antibodies per urease (P07374 whole entry, chain 2 of 2): as above
# [14] = target: V21H4-DOS47 with 3.3 antibodies per urease (jack bean (Canavalia ensiformis), UniProt P07374 1-840); assay: as above
# Sequence of V21H4-DOS47 with 3.3 antibodies per urease (P07374 whole entry, chain 2 of 2): as above
# [15] = target: V21H4-DOS47 with 9.4 antibodies per urease (jack bean (Canavalia ensiformis), UniProt P07374 1-840); assay: as above
# Sequence of V21H4-DOS47 with 9.4 antibodies per urease (P07374 whole entry, chain 2 of 2): as above
# [16] = target: T2, AB1m (SEQ ID NO:9)-DOS47 …; assay: ELISA, VEGFR3/Fc captured by anti-human IgG-Fc, conjugate detected with anti-urease
# [17] = target: T3, AB2 (SEQ ID NO:13)-DOS47 …; assay: as above
# [18] = target: T4, AB3m (SEQ ID NO:23)-DOS47 …; assay: as above
# [19] = target: T5, AB4 (SEQ ID NO:27)-DOS47 …; assay: as above
# [20] = target: T11, human VEGFR2 (KDR) expressed on 293/KDR cells (human, UniProt P35968 20-1356); assay: flow cytometry on 293/KDR cells, detected with PE-streptavidin
# [21] = target: T11, human VEGFR2 (KDR) expressed on 293/KDR …; assay: flow cytometry on 293/KDR cells, S/N against the biotin-isotype control
# [22] = target: B2; assay: ELISA, VEGFR2/Fc captured by anti-human IgG-Fc, biotin-V21H4 detected with streptavidin-AP; antibody alone, not conjugated
# [23] = target: B2; assay: ELISA, VEGFR2/Fc captured on anti-human IgG-Fc, biotinylated antibody detected with streptavidin-alkaline phosphatase
# [24] = target: B2; assay: SPR (Biacore 3000), sdAb monomer over amine-coupled human VEGFR-2/Fc, 25 C; constants estimated from transformed data (FIG. 3)
# [25] = target: B2; assay: SPR (Biacore 3000), sdAb monomer over amine-coupled human VEGFR-2/Fc, 25 C
binder,measurement,setting,value
B1,binding result,[1],no binding (tested: 150-200 nM)
B2,binding result,[2],binds
same,binding result,[3],binds
same,binding result,[4],binds
same,binding result,[5],binds
same,binding result,[6],binds
same,binding result,[7],binds
same,binding result,[8],binds
same,binding result,[9],binds
same,binding result,[10],binds
same,binding result,[11],binds
same,binding result,[12],binds
same,binding result,[13],binds
same,binding result,[14],binds
same,binding result,[15],binds
B3,binding result,[16],no binding
same,binding result,[17],no binding
same,binding result,[18],no binding
same,binding result,[19],no binding
B4,EC50,[20],1.6 nM
same,EC50 (read off the curve),[21],~2 nM
same,EC50,[22],1.8 nM
same,EC50 (read off the curve),[23],~2 nM
B5,binding result,[1],no binding (tested: 150-200 nM)
same,Kd,[24],~80 nM
same,koff,[24],< 0.01 s⁻¹
same,kon,[24],~60000 M⁻¹ s⁻¹
B6,binding result,[1],no binding (tested: 150-200 nM)
same,Kd,[25],500 nM
same,koff,[25],0.02 s⁻¹
same,kon,[25],46000 M⁻¹ s⁻¹
B7,binding result,[1],no binding (tested: 150-200 nM)
same,Kd,[25],900 nM
same,koff,[25],0.045 s⁻¹
same,kon,[25],53000 M⁻¹ s⁻¹
